Measurements from the supplement of paper PMC10567573.

B1: ACSBG2 (parent)
chain: FAQADALKGTLVSTLKEVKPTVFI
B2: TRIM15 (parent)
chain: LSQMGAQSSGKILLCPLCQEEEQA

Variants of: B1
Assay: protein stability index of a GFP-peptide fusion (GPS, HEK-293T) (PSI 1-6); higher = more stable
Details: c terminus: a fixed tail appended
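Note: lentivirally expressed fusions sorted by FACS into six bins by GFP to DsRed ratio, PSI derived from sequencing read proportions per bin multiplied by bin number.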

Protein stability index: each site, then its substitutions
I24: P 2.27, S 2.27, F 4.5, Q 2.23, D 2.88, N 3.24, W 1.26, M 1.16, C 2.92, K 2.41, T 2.36, H 2.02, A 1.98, G 2.08, L 1.05, V 1.83
V22: P 2.02, K 2.45, T 2.77, Y 1.67, S 2.05, Q 2.28, L 1.3, N 1.98, R 2.94
F23: E 2.3, K 2.69, D 2.62, N 1.69, W 2.2, T 1.73, H 1.75, L 2.52, R 2.64, P 2.76, A 1.96, G 2.36, C 2.52, Y 2.32, V 2.18, S 2.16, M 1.86, I 1.65, Q 2.16

Variants of: B2
Assay: as above
Details: c terminus: a fixed tail appended

Protein stability index of substitutions, site by site:
S8: T 3.55, P 3.73, V 3.51, W 2.65, G 3.93, D 3.98, H 3.82, R 3.89, K 3.4, E 3.82, I 3.14, Q 3.27, N 3.82, Y 3.49, F 2.76, C 2.89, A 4.01
C15: T 5.05, P 4.96, D 5.58, Y 4.39, W 4.47, M 4.64, H 4.74, N 5.22, R 4.43, L 3.9, F 4.16, K 4.65, G 5.51, I 3.77, E 5.1, Q 4.96, S 4.98
L14: A 5.21, V 2.99, D 4.72, W 2.93, R 4.15, F 3.59, N 3.56, I 3.91, M 3.98, Y 4.23, C 3.94, H 3.36, T 4.66, S 4.72, Q 4.52
A6: D 3.75, T 3.27, M 3.3, N 3.12, K 4.68, E 3.56, H 4.33, I 3.93, G 3.47, R 3.17, C 3.37, F 2.6, W 3.94, S 4.02, P 3.8, V 3.81, Y 3.29
Q3: D 3.97, M 2.96, C 3.18, T 3.58, P 4.9, R 3.23, H 3.95, W 2.23, E 3.68, K 4.1, Y 3.24, I 3.11, V 2.81, N 3.55, F 2.9
K11: E 3.11, Q 3.9, A 3.14, P 3.6, D 2.81, C 2.79, G 2.27, W 2.76, N 4.26, H 2.72, M 3.12, I 3.03, F 2.44, V 2.04, R 3.03, L 1.76, Y 2.64, S 3.79, T 3
S9: Q 2.65, T 3.8, I 3, L 3.4, M 2.57, K 3.78, P 3.49, F 2.36, R 2.99, W 2.96, H 3.71, N 3, C 3.86, G 2.64, E 2.93, A 3.07, D 3.7, Y 3.9
P16: V 3.29, C 2.59, M 3.98, D 4.05, H 3.8, L 3.37, A 2.92, N 4.1, F 4.36, W 2.9, Q 4.22, T 3.91, R 3.39, K 4.19, Y 2.97
I12: V 4.5, L 4.04, N 3.09, M 3.79, K 4.04, Q 4.27, D 4.21, A 4.19, F 3.52, Y 3.61, T 3.42, G 4.59, H 3.51, S 4.57, E 3.56
C18: F 3.81, H 4.7, N 4.38, A 5.26, M 4.61, P 3.47, K 4.27, E 5.13, D 5.2, I 3.49, L 4.82
G5: V 3.13, M 2.95, D 3.49, T 3.7, K 3.87, Y 2.9, H 3.14, L 3.27, A 3.49, N 3.39, S 3.05, P 2.76, F 3.22, Q 3.92, C 3.92, R 3.32, I 2.98
G10: D 4.3, N 4.54, V 3.19, L 2.53, I 2.5, E 3.89, W 2.55, M 3.83, C 3.86, H 3.71, T 3.71, S 3.79, F 2.74, Y 2.83, Q 3.58, K 3.71, P 3.78, R 3.22
L13: F 4.09, R 4.71, T 4.51, H 5.52, I 4.08, A 4.87, M 4.74, N 4.63, G 4.65, K 4.65, P 3.97, Q 4.1, S 4.5, E 4.24, D 4.5, C 4.67, Y 4.25
L1: E 3.99, K 3.7, W 4.43, D 4.53, P 3.44, F 2.73, R 3.77, Q 4.4, I 3.38, A 3.1, V 3.97, S 3.55, H 3.94, M 3.52, Y 2.65, N 3.75, G 3.96
Q7: E 3.52, Y 3.24, P 3.15, V 2.76, W 3.84, H 4.53, K 3.47, M 2.99, T 3.99, G 3.58, F 2.88, N 4.07, I 2.74, R 3.5, D 3.88, L 2.8, S 3.77, A 4.11, C 3.71
L17: A 3.63, G 4.13, R 4.31, V 3.79, Y 3.34, D 4.97, H 3.79, Q 4.19, T 4.3, M 3.19, S 4.24, K 3.6, N 4.43, W 3.57, P 5.04, C 3.76, F 3.23
M4: C 4.13, L 4.22, R 3.92, F 3.26, S 4.08, N 3.6, E 3.94, P 4.94, I 3.82, Y 3.76, G 3.2, A 4.66, V 2.81
S2: K 3.14, R 3.7, F 2.96, I 1.9, H 3.43, D 5.08, M 3.58, A 2.6, Q 4.06, P 4.26, Y 3.63, E 4, T 3.71
